Measurements taken from paper PMC4165486 (Vaccine, 2011).

Columns and labels:
AUC [1] = target: the molecule itself; experiment: AUC
AUC [2] = target: the molecule itself; experiment: AUC; remark: listed apart in the source

B1: poly-epitope P181 (P90-DEG-P77-DEG-P27) (peptide)
chain: TKKLNKELSEGNKELEKLEKNIKELEETNNTLENDIKVEKLKKYNNEISSLKKELDILNEKMGKCTKKRNVEEELHSLRKNYNIINEEIEEIT
modifications: derivatized diethylene glycol (DEG) linker inserted between P90 and P77 and between P77 and P27
AUC [1]
  stoichiometry N: 2
AUC [2]
  Kd: 115 µM
